According to the RNAGym collection of RNA variant scans (doi:10.7554/elife.90254):

B1: LINE1-mini (parent)
chain: GGCAGAGCUCAACACAGCGUGGCAAAGUGGCUGUGGCUAGACUGCC

Variants of: B1
Experiment: self-cleavage, relative activity (ratio to wild type); higher = more cleavage; in vitro, sequencing; the parent is a self-cleaving ribozyme

Compared with AGCAGAGCUCAACACAGCGUGGCACAGUGGCUGUGGCUAGACUGCC [G1A A25C], GGCAGAGCUCAACACAGCGUGGCAAAGUGGCGGUGGCGAGACUGCC [U32G U38G] is lower in self-cleavage: 1.36 for the first, 0.03 for the second.

Compared with GGCAGAGCUCAACACAGCGAGGCAAAGUGGAUGUGGCUAGACUGCC [U20A C31A], GGCAGAGCUCGACACUGCGUGGCAAAGUGGCUGUGGCUAGACUGCC [A11G A16U] is lower in self-cleavage: 0.09 for the first, 0.03 for the second.

Going from GGCAGAGCUCAACACAGCGGGGCAGAGUGGCUGUGGCUAGACUGCC [U20G A25G] to GGCAGAGCUCAUCACAGCGUGGCAAAGUGGCUGUGUCUAGACUGCC [A12U G36U], the self-cleavage falls from 0.48 to 0.16.

Compared with GGCACAGCUCAACACAGCGUGGCAAAGUGGCUGCGGCUAGACUGCC [G5C U34C], GGCAGAGCUCAACCCAGCGUGGCAAAGUGGCUGUGGCUAUACUGCC [A14C G40U] is higher in self-cleavage: 0.06 for the first, 0.07 for the second.

First: GGCAGAGCUCAACACAGCGUGGCAAAGUGGCUGAGGCUAGACCGCC [U34A U43C]
Second: GGCAGAGCUCAACACAGCGUGUCAAAGUGGCUGUGGCUAGACUACC [G22U G44A]
The self-cleavage of the first is lower: 0.04 for the first, 0.85 for the second.

Going from GGCGGAGCUCAACACAGCGGGGCAAAGUGGCUGUGGCUAGACUGCC [A4G U20G] to GGCAGAGCUCAACACAGCGUGGCAAAGGGGCUGUGGUUAGACUGCC [U28G C37U], the self-cleavage falls from 0.23 to 0.03.

Compared with GGCAGAGCUCAACACAGCGUGGCAAAGCGGCUGUGGCUAGAGUGCC [U28C C42G], GGCAGAGCUCAACUCAGAGUGGCAAAGUGGCUGUGGCUAGACUGCC [A14U C18A] is lower in self-cleavage: 0.13 for the first, 0.11 for the second.

Compared with GGCAGAGCUCAACACAGCGUGGAAAAGUGUCUGUGGCUAGACUGCC [C23A G30U], GGCAGAGCUCAACACAGCGUGUCAAAGUGGCUGUUGCUAGACUGCC [G22U G35U] is lower in self-cleavage: 1.16 for the first, 0.39 for the second.

First: GGCAGAGCUCAACAGAGCGUGGCAAAGUGGCUGUGGUUAGACUGCC [C15G C37U]
Second: GGCAGAGCUCAACACAGCGUGGCAAAGUGGCGGUGGCUAGACUGGC [U32G C45G]
The self-cleavage of the first is lower: 0.04 for the first, 0.11 for the second.

Compared with GGCAGAGCUCAACACACCGUGGCAAAGUGGAUGUGGCUAGACUGCC [G17C C31A], GGCAGAGAUCAAAACAGCGUGGCAAAGUGGCUGUGGCUAGACUGCC [C8A C13A] is higher in self-cleavage: 0.65 for the first, 0.67 for the second.

Compared with CGCAGAGCUCAACACAGCGUGGCAAAGUGGCUGUGGCUAGACUUCC [G1C G44U], GGCAGAGCUAAACACAGCGUGGCAAAGUGGCUGUGGCUAGACUCCC [C10A G44C] is higher in self-cleavage: 0.06 for the first, 0.07 for the second.

Compared with GUCAAAGCUCAACACAGCGUGGCAAAGUGGCUGUGGCUAGACUGCC [G2U G5A], GGCAGAGCUCAACACAGCGUGGUAAAGUGGCUGUGGCGAGACUGCC [C23U U38G] is lower in self-cleavage: 0.06 for the first, 0.04 for the second.

Compared with GGCAGAGCUCAACACAGCGUGGUAAAGUGGCUGUGGCUAGACUGCA [C23U C46A], GGCAGAGCUCAACACAGAGUGGCAAAGUGGCGGUGGCUAGACUGCC [C18A U32G] is lower in self-cleavage: 1.4 for the first, 0.04 for the second.

Compared with GGCAGAGGUCAUCACAGCGUGGCAAAGUGGCUGUGGCUAGACUGCC [C8G A12U], GGAAGAGCUCAACACAGCGUGGCAAAGUGGCUGUGGCAAGACUGCC [C3A U38A] is higher in self-cleavage: 0.13 for the first, 0.34 for the second.

Compared with GGCAGAGCUCAACAUAGCGUGGCAAAGUGGGUGUGGCUAGACUGCC [C15U C31G], GGCAGGGCUCAACACAGCGUGACAAAGUGGCUGUGGCUAGACUGCC [A6G G22A] is higher in self-cleavage: 0.06 for the first, 0.11 for the second.

First: GGCAAAGAUCAACACAGCGUGGCAAAGUGGCUGUGGCUAGACUGCC [G5A C8A]
Second: GGCAGAGCUCAACACAGCGUCGCAAACUGGCUGUGGCUAGACUGCC [G21C G27C]
The self-cleavage of the first is lower: 0.27 for the first, 0.52 for the second.

First: GGCAGAGCUCAACACAGCGUAGCAAAGUGGCUGUGGCUUGACUGCC [G21A A39U]
Second: GGCAGAGCUCAACACAGCUUGGCAAAGUGGCUGUGGCUAGGCUGCC [G19U A41G]
The self-cleavage of the first is higher: 1.82 for the first, 0.2 for the second.

Compared with GGCAGAGCUCAACAUAGCGUGGCAGAGUGGCUGUGGCUAGACUGCC [C15U A25G], GGCAGAGCUCAACACAGCGUGGCAAAGUGGCUGUGGCUACGCUGCC [G40C A41G] is lower in self-cleavage: 0.17 for the first, 0.07 for the second.

First: GGCAGAGCUCAACACAGCGUGGCAAAGUGGCUGUGGCUACCCUGCC [G40C A41C]
Second: GGCAGAGCUCAACACAGCGUGGCAAAGUGGCUGUUGCUAGACAGCC [G35U U43A]
The self-cleavage of the first is lower: 0.09 for the first, 0.15 for the second.

Going from GGCAGAGCCCAACACAGCUUGGCAAAGUGGCUGUGGCUAGACUGCC [U9C G19U] to GGCAGAGCUCAACACAGCGAGGCAACGUGGCUGUGGCUAGACUGCC [U20A A26C], the self-cleavage rises from 0.08 to 0.76.

Compared with GUCAGAGCUCAACACAGCGUGGCAAAGUGGCUGUAGCUAGACUGCC [G2U G35A], GGCAGAGCUCAACACAGCGUGGCAAAGCGGCUGUGACUAGACUGCC [U28C G36A] is higher in self-cleavage: 0.05 for the first, 0.1 for the second.

First: GGCAGAGCUCAACACAGGGUGGCAAAGUGGCUGUGGCUAGGCUGCC [C18G A41G]
Second: GGCAGAGCUGUACACAGCGUGGCAAAGUGGCUGUGGCUAGACUGCC [C10G A11U]
The self-cleavage of the first is higher: 0.08 for the first, 0.04 for the second.

Compared with GGCAGAGCUCAACAAAGCGUGCCAAAGUGGCUGUGGCUAGACUGCC [C15A G22C], GGCAGAGCCCAACACAGCGUGGCAAAGUGACUGUGGCUAGACUGCC [U9C G30A] is lower in self-cleavage: 0.06 for the first, 0.03 for the second.

Compared with GGCAGAGCCCAACACAGCGUGGCAAGGUGGCUGUGGCUAGACUGCC [U9C A26G], AGCAGAGCUCAACACAGCGUGGCAAAGUGGCUGUGGCUCGACUGCC [G1A A39C] is higher in self-cleavage: 0.05 for the first, 0.14 for the second.

Going from GGCAGAGCUCAACACACCGUGGCAAAGUGGCUGUGGCUUGACUGCC [G17C A39U] to GGCAGAGCUCAACACAGUGUGGUAAAGUGGCUGUGGCUAGACUGCC [C18U C23U], the self-cleavage rises from 0.29 to 1.07.

Compared with GGCAGAUCUCAACACUGCGUGGCAAAGUGGCUGUGGCUAGACUGCC [G7U A16U], GGGAGAGCUCAACACAGCGUGGCGAAGUGGCUGUGGCUAGACUGCC [C3G A24G] is higher in self-cleavage: 0.12 for the first, 0.5 for the second.

Going from GGCAGAGCUUAACACAGCGUGGCAAAGUGCCUGUGGCUAGACUGCC [C10U G30C] to GGCAGAGCUCAACGCAGCGUGGCAAAGUGGCGGUGGCUAGACUGCC [A14G U32G], the self-cleavage falls from 0.36 to 0.04.

Compared with GGCAGAGCCCUACACAGCGUGGCAAAGUGGCUGUGGCUAGACUGCC [U9C A11U], GGCAGAGCUCAACACAGCGUGGCAAAGUGGCUAGGGCUAGACUGCC [G33A U34G] is higher in self-cleavage: 0.03 for the first, 0.04 for the second.
